# Results: PMC6508626
# Assays:
# Test in all cases: co-IP
# [1] = target: HA-tagged NS1 D197A (Dengue virus 2 (strain 16681))
# [2] = target: HA-tagged NS1 Y158A (Dengue virus 2 (strain 16681))
# [3] = target: HA-tagged NS1 W8A (Dengue virus 2 (strain 16681))
# [4] = target: HA-tagged NS1 W311A (Dengue virus 2 (strain 16681))
# [5] = target: HA-tagged NS1 P319A (Dengue virus 2 (strain 16681))
# [6] = target: HA-tagged NS1 D136A (Dengue virus 2 (strain 16681))
# [7] = target: HA-tagged NS1 Y32A (Dengue virus 2 (strain 16681))
# [8] = target: HA-tagged NS1 W150A (Dengue virus 2 (strain 16681))
# [9] = target: HA-tagged NS1 R336A (Dengue virus 2 (strain 16681))
# [10] = target: HA-tagged NS1 R62A (Dengue virus 2 (strain 16681))
# [11] = target: HA-tagged NS1 G161A (Dengue virus 2 (strain 16681))
# [12] = target: HA-tagged NS1 L153A (Dengue virus 2 (strain 16681))
# [13] = target: HA-tagged NS1 P320A (Dengue virus 2 (strain 16681))
# [14] = target: HA-tagged NS1 W168A (Dengue virus 2 (strain 16681))
# [15] = target: HA-tagged NS1 S252A (Dengue virus 2 (strain 16681))
# [16] = target: Carboxy-terminally HA-tagged wildtype NS1 from pTM_NS1_HA (Dengue virus 2 (strain 16681)) (UniProt P29990)
# [17] = target: HA-tagged NS1 T317A (Dengue virus 2 (strain 16681))
# [18] = target: HA-tagged NS1 E334A (Dengue virus 2 (strain 16681))
# [19] = target: HA-tagged NS1 K189A (Dengue virus 2 (strain 16681))
substance,measurement,setting,value
NS4A-2K-4B polyprotein from pTM_NS4A-2K-4B (natural protein),NS1—NS4A-2K-4B interaction (fold of WT),[1],4.09 fold of WT
same,NS1—NS4A-2K-4B interaction (fold of WT),[2],3.01 fold of WT
same,NS1—NS4A-2K-4B interaction (fold of WT),[3],0.99 fold of WT
same,NS1—NS4A-2K-4B interaction (fold of WT),[4],0.31 fold of WT
same,NS1—NS4A-2K-4B interaction (fold of WT),[5],0.37 fold of WT
same,NS1—NS4A-2K-4B interaction (fold of WT),[6],0.21 fold of WT
same,NS1—NS4A-2K-4B interaction (fold of WT),[7],0.31 fold of WT
same,NS1—NS4A-2K-4B interaction (fold of WT),[8],0.38 fold of WT
same,NS1—NS4A-2K-4B interaction (fold of WT),[9],0.26 fold of WT
same,NS1—NS4A-2K-4B interaction (fold of WT),[10],3.97 fold of WT
same,NS1—NS4A-2K-4B interaction (fold of WT),[11],0.07 fold of WT
same,NS1—NS4A-2K-4B interaction (fold of WT),[12],1.67 fold of WT
same,NS1—NS4A-2K-4B interaction (fold of WT),[13],0.86 fold of WT
same,NS1—NS4A-2K-4B interaction (fold of WT),[14],0.02 fold of WT
same,NS1—NS4A-2K-4B interaction (fold of WT),[15],3.18 fold of WT
same,NS1—NS4A-2K-4B interaction (fold of WT),[16],1 fold of WT
same,NS1—NS4A-2K-4B interaction (fold of WT),[17],2.08 fold of WT
same,NS1—NS4A-2K-4B interaction (fold of WT),[18],0.18 fold of WT
same,NS1—NS4A-2K-4B interaction (fold of WT),[19],1.33 fold of WT
